Test results as given in paper PMC4876015 (Structure (London, England : 1993), 2016).

B1: KcsA V76ester channel (semisynthetic, full length) (natural protein, UniProt P0A334 1-160, looked up)
chain: MPPMLSGLLARLVKLLLGRHGSALHWRAAGAATVLLVIVLLAGSYLAVLAERGAPGAQLITYPRALWWACETATTVGYGDLCPVTLWGRLVAVVVMVAGITSFGLVTAALATWFVGREQERRGHFVRHSEKAAEEAYTRTTRALHERFDRLERMLDDNRR
modifications: peptide bond between residues 75 and 76 (Thr75-Val76, the 4' amide bond) replaced with an ester linkage
B2: KcsA V76ester channel, truncated for crystallization (domain or fragment, UniProt P0A334 1-125, looked up)
chain: MPPMLSGLLARLVKLLLGRHGSALHWRAAGAATVLLVIVLLAGSYLAVLAERGAPGAQLITYPRALWWACETATTVGYGDLCPVTLWGRLVAVVVMVAGITSFGLVTAALATWFVGREQERRGHF
modifications: peptide bond between residues 75 and 76 (Thr75-Val76, the 4' amide bond) replaced with an ester linkage

What was measured:
[1] = target: the molecule itself; assay: SDS-PAGE of the folded channel
crystal structure = target: the molecule itself; assay: crystal structure

Row | Protein | stoichiometry N [1] | binding result (crystal structure)
1 | B1 | 4 | –
2 | B2 | – | binds
